Reference: paper PMC9650030, “The RNA repair proteins RtcAB regulate transcription activator RtcR via its CRISPR-associated Rossmann fold domain” (iScience, 2022)
One block for each molecule: values may come before it.

Legend:
[1] = biological target: MBP-RtcR (wild-type, full-length RtcR N-terminally tagged with maltose binding protein) (Escherichia coli) (UniProt P38035); assay: MST; RED-NHS-labelled MBP-RtcRWT or RtcR_(ΔCARF) (diluted to 50 nM, mixed with an equal volume) against a serial dilution of RtcA or RtcB; 24°C; modified PBS (250 mM NaCl) with 0.05% Tween-20; fitted with the Hill equation
[2] = biological target: T1, MBP-RtcR (wild-type, full-length RtcR N-terminally tagged with maltose binding protein) (Escherichia coli, UniProt P38035 1-532, labelled with Monolith RED-NHS 2nd Generation dye (amine reactive) in the MST experiments only); assay: as above; settings: both partners purified
T1 construct: also called RtcRWT; MBP-RtcRWT; not shown: MBP, N-terminal, kept
T1 sequence (looked up): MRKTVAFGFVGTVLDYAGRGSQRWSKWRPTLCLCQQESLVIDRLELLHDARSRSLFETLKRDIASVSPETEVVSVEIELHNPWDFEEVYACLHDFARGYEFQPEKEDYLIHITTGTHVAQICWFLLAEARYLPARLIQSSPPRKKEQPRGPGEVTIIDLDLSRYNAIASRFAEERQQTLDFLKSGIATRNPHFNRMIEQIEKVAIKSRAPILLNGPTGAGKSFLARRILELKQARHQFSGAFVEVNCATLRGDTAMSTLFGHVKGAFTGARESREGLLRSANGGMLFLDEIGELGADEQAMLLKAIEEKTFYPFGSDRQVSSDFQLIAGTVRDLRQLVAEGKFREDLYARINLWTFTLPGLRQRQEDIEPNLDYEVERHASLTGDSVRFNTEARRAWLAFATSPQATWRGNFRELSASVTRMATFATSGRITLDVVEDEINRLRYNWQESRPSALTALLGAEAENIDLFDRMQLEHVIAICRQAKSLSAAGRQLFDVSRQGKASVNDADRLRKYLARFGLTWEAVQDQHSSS

- Kd [1]: 14.5 µM
Molecule: His-RtcB (N-terminal his-tagged RNA ligase RtcB) (from UniProt P46850 1-408) (enzyme)

- Kd [2]: ~5 µM
B1: His-RtcA (N-terminal his-tagged RNA 3'-terminal phosphate cyclase RtcA) (enzyme, Escherichia coli, UniProt P46849 1-338, looked up)
chain: MKRMIALDGAQGEGGGQILRSALSLSMITGQPFTITSIRAGRAKPGLLRQHLTAVKAATEICGATVEGAELGSQRLLFRPGTVRGGDYRFAIGSAGSCTLVLQTVLPALWFADGPSRVEVSGGTDNPSAPPADFIRRVLEPLLAKIGIHQQTTLLRHGFYPAGGGVVATEVSPVASFNTLQLGERGNIVQMRGEVLLAGVPRHVAEREIATLAGSFSLHEQNIHNLPRDQGPGNTVSLEVESENITERFFVVGEKRVSAEVVAAQLVKEVKRYLASTAAVGEYLADQLVLPMALAGAGEFTVAHPSCHLLTNIAVVERFLPVRFSLIETDGVTRVSIE
notes: RtcA, RNA 3'-terminal phosphate cyclase, Escherichia coli; not shown: His tag, N-terminal, kept
